{"source": "patent US10597674B2", "about": "“HPPD variants and methods of use” (BASF Agricultural Solutions Seed, US LLC, priority 2015, dated 2020)", "molecules": {"B1": {"name": "SEQ ID NO: 56: mutant HPPD polypeptide: P268G T270E E335P G336D N337S K339R A340V I345V (protein)", "chain": "MADLYENPMGLMGFEFIEFASPTPGTLEPIFEIMGFTKVATHRSKNVHLYRQGEINLILNNEPNSIASYFAAEHGPSVCGMAFRVKDSQKAYNRALELGAQPIHIDTGPMELNLPAIKGIGGAPLYLIDRFGEGSSIYDIDFVYLEGVERNPVGAGLKVIDHLTHNVYRGRMVYWANFYEKLFNFREARYFDIKGEYTGLTSKAMSAPDGMIRIPLNEESSKGAGQIEEFLMQFNGEGIQHVAFLTDDLVKTWDALKKIGMRFMTAPGDEYYEMLEGRLPDHGEPVDQLQARGILLDGSSVEGDKRLLLQIFSETLMGPVFFEFIQRKGDDGFGPDSFRVLFESVERDQVRRGVLTAD", "modifications": "mutant HPPD polypeptide", "notes": "mutant HPPD polypeptide: P268G T270E E335P G336D N337S K339R A340V I345V"}, "B2": {"name": "SEQ ID NO: 9: mutant HPPD polypeptide: E335P G336D N337S I345V (protein)", "chain": "MADLYENPMGLMGFEFIEFASPTPGTLEPIFEIMGFTKVATHRSKNVHLYRQGEINLILNNEPNSIASYFAAEHGPSVCGMAFRVKDSQKAYNRALELGAQPIHIDTGPMELNLPAIKGIGGAPLYLIDRFGEGSSIYDIDFVYLEGVERNPVGAGLKVIDHLTHNVYRGRMVYWANFYEKLFNFREARYFDIKGEYTGLTSKAMSAPDGMIRIPLNEESSKGAGQIEEFLMQFNGEGIQHVAFLTDDLVKTWDALKKIGMRFMTAPPDTYYEMLEGRLPDHGEPVDQLQARGILLDGSSVEGDKRLLLQIFSETLMGPVFFEFIQRKGDDGFGPDSFKALFESVERDQVRRGVLTAD", "modifications": "mutant HPPD polypeptide", "notes": "mutant HPPD polypeptide: E335P G336D N337S I345V"}, "B3": {"name": "SEQ ID NO: 21: mutant HPPD polypeptide: E335P G336H N337S (protein)", "chain": "MADLYENPMGLMGFEFIEFASPTPGTLEPIFEIMGFTKVATHRSKNVHLYRQGEINLILNNEPNSIASYFAAEHGPSVCGMAFRVKDSQKAYNRALELGAQPIHIDTGPMELNLPAIKGIGGAPLYLIDRFGEGSSIYDIDFVYLEGVERNPVGAGLKVIDHLTHNVYRGRMVYWANFYEKLFNFREARYFDIKGEYTGLTSKAMSAPDGMIRIPLNEESSKGAGQIEEFLMQFNGEGIQHVAFLTDDLVKTWDALKKIGMRFMTAPPDTYYEMLEGRLPDHGEPVDQLQARGILLDGSSVEGDKRLLLQIFSETLMGPVFFEFIQRKGDDGFGPHSFKALFESIERDQVRRGVLTAD", "modifications": "mutant HPPD polypeptide", "notes": "mutant HPPD polypeptide: E335P G336H N337S"}, "B4": {"name": "SEQ ID NO: 43: mutant HPPD polypeptide: R213K P268G T270E E335P G336D N337S A340V I345V (protein)", "chain": "MADLYENPMGLMGFEFIEFASPTPGTLEPIFEIMGFTKVATHRSKNVHLYRQGEINLILNNEPNSIASYFAAEHGPSVCGMAFRVKDSQKAYNRALELGAQPIHIDTGPMELNLPAIKGIGGAPLYLIDRFGEGSSIYDIDFVYLEGVERNPVGAGLKVIDHLTHNVYRGRMVYWANFYEKLFNFREARYFDIKGEYTGLTSKAMSAPDGMIKIPLNEESSKGAGQIEEFLMQFNGEGIQHVAFLTDDLVKTWDALKKIGMRFMTAPGDEYYEMLEGRLPDHGEPVDQLQARGILLDGSSVEGDKRLLLQIFSETLMGPVFFEFIQRKGDDGFGPDSFKVLFESVERDQVRRGVLTAD", "modifications": "mutant HPPD polypeptide", "notes": "mutant HPPD polypeptide: R213K P268G T270E E335P G336D N337S A340V I345V"}, "B5": {"name": "SEQ ID NO: 42: mutant HPPD polypeptide: A204T P268G T270E E335P G336D N337S A340V I345V (protein)", "chain": "MADLYENPMGLMGFEFIEFASPTPGTLEPIFEIMGFTKVATHRSKNVHLYRQGEINLILNNEPNSIASYFAAEHGPSVCGMAFRVKDSQKAYNRALELGAQPIHIDTGPMELNLPAIKGIGGAPLYLIDRFGEGSSIYDIDFVYLEGVERNPVGAGLKVIDHLTHNVYRGRMVYWANFYEKLFNFREARYFDIKGEYTGLTSKTMSAPDGMIRIPLNEESSKGAGQIEEFLMQFNGEGIQHVAFLTDDLVKTWDALKKIGMRFMTAPGDEYYEMLEGRLPDHGEPVDQLQARGILLDGSSVEGDKRLLLQIFSETLMGPVFFEFIQRKGDDGFGPDSFKVLFESVERDQVRRGVLTAD", "modifications": "mutant HPPD polypeptide", "notes": "mutant HPPD polypeptide: A204T P268G T270E E335P G336D N337S A340V I345V"}, "B6": {"name": "SEQ ID NO: 5: mutant HPPD polypeptide: E335P N337S (protein)", "chain": "MADLYENPMGLMGFEFIEFASPTPGTLEPIFEIMGFTKVATHRSKNVHLYRQGEINLILNNEPNSIASYFAAEHGPSVCGMAFRVKDSQKAYNRALELGAQPIHIDTGPMELNLPAIKGIGGAPLYLIDRFGEGSSIYDIDFVYLEGVERNPVGAGLKVIDHLTHNVYRGRMVYWANFYEKLFNFREARYFDIKGEYTGLTSKAMSAPDGMIRIPLNEESSKGAGQIEEFLMQFNGEGIQHVAFLTDDLVKTWDALKKIGMRFMTAPPDTYYEMLEGRLPDHGEPVDQLQARGILLDGSSVEGDKRLLLQIFSETLMGPVFFEFIQRKGDDGFGPGSFKALFESIERDQVRRGVLTAD", "modifications": "mutant HPPD polypeptide", "notes": "mutant HPPD polypeptide: E335P N337S"}, "B7": {"name": "SEQ ID NO: 44: mutant HPPD polypeptide: R213L P268G T270E E335P G336D N337S A340V I345V (protein)", "chain": "MADLYENPMGLMGFEFIEFASPTPGTLEPIFEIMGFTKVATHRSKNVHLYRQGEINLILNNEPNSIASYFAAEHGPSVCGMAFRVKDSQKAYNRALELGAQPIHIDTGPMELNLPAIKGIGGAPLYLIDRFGEGSSIYDIDFVYLEGVERNPVGAGLKVIDHLTHNVYRGRMVYWANFYEKLFNFREARYFDIKGEYTGLTSKAMSAPDGMILIPLNEESSKGAGQIEEFLMQFNGEGIQHVAFLTDDLVKTWDALKKIGMRFMTAPGDEYYEMLEGRLPDHGEPVDQLQARGILLDGSSVEGDKRLLLQIFSETLMGPVFFEFIQRKGDDGFGPDSFKVLFESVERDQVRRGVLTAD", "modifications": "mutant HPPD polypeptide", "notes": "mutant HPPD polypeptide: R213L P268G T270E E335P G336D N337S A340V I345V"}, "B8": {"name": "SEQ ID NO: 45: mutant HPPD polypeptide: P268G T270E T315R E335P G336D N337S A340V I345V (protein)", "chain": "MADLYENPMGLMGFEFIEFASPTPGTLEPIFEIMGFTKVATHRSKNVHLYRQGEINLILNNEPNSIASYFAAEHGPSVCGMAFRVKDSQKAYNRALELGAQPIHIDTGPMELNLPAIKGIGGAPLYLIDRFGEGSSIYDIDFVYLEGVERNPVGAGLKVIDHLTHNVYRGRMVYWANFYEKLFNFREARYFDIKGEYTGLTSKAMSAPDGMIRIPLNEESSKGAGQIEEFLMQFNGEGIQHVAFLTDDLVKTWDALKKIGMRFMTAPGDEYYEMLEGRLPDHGEPVDQLQARGILLDGSSVEGDKRLLLQIFSERLMGPVFFEFIQRKGDDGFGPDSFKVLFESVERDQVRRGVLTAD", "modifications": "mutant HPPD polypeptide", "notes": "mutant HPPD polypeptide: P268G T270E T315R E335P G336D N337S A340V I345V"}, "B9": {"name": "SEQ ID NO: 34: mutant HPPD polypeptide: P268G T270E D330H E335P G336D N337S A340R I345K (protein)", "chain": "MADLYENPMGLMGFEFIEFASPTPGTLEPIFEIMGFTKVATHRSKNVHLYRQGEINLILNNEPNSIASYFAAEHGPSVCGMAFRVKDSQKAYNRALELGAQPIHIDTGPMELNLPAIKGIGGAPLYLIDRFGEGSSIYDIDFVYLEGVERNPVGAGLKVIDHLTHNVYRGRMVYWANFYEKLFNFREARYFDIKGEYTGLTSKAMSAPDGMIRIPLNEESSKGAGQIEEFLMQFNGEGIQHVAFLTDDLVKTWDALKKIGMRFMTAPGDEYYEMLEGRLPDHGEPVDQLQARGILLDGSSVEGDKRLLLQIFSETLMGPVFFEFIQRKGHDGFGPDSFKRLFESKERDQVRRGVLTAD", "modifications": "mutant HPPD polypeptide", "notes": "mutant HPPD polypeptide: P268G T270E D330H E335P G336D N337S A340R I345K"}}, "test_system": "transgenic soybean T0 events", "assay": "Additional greenhouse trials of T0 soybean events, leaf damage score 0-100 as percentiles", "assay_type": "in vivo", "details": "Cmpd. 1 300 g AI/ha, five days; for leaf damage score, Interquartile range: 75th minus 25th percentile; for leaf damage score, 25th percentile: scale 0 (no damage) to 100 (complete bleaching); for leaf damage score, 75th percentile / leaf damage score, 90th percentile / leaf damage score, Median: scale 0-100", "description": "In additional greenhouse trials, 21 to 94 independent T0 soybean events per construct containing an exemplary mutant HPPD polypeptide were sprayed with the HPPD inhibitor herbicide Cmpd. […] Five days after the application, the leaf damaged area due to the HPPD inhibitor herbicide is scored in a scale from 0 (no damage) to 100 (complete bleaching). Under those conditions, the wild-type plants were completely bleached and their damage scores were in the 95-100 range.\nTable 9 presents the distribution of the HPPD inhibitor herbicide damage score data as percentile for exemplary mutant HPPD inhibitor herbicide tolerant polypeptides (SEQ ID NOs). The percentiles normalize ranks of the damage score from an individual plant in a population. […] The median is the 50th percentile. Half the values had higher damage scores; half had lower damage scores. […] The difference between the 75th and 25th percentile is called the interquartile range and a marker to quantify scattering in the population. All constructs had only one single cassette insertion in the soybean genome.\nIn Table 9, the constructs were ranked based on injury scores according to the 75th percentile, from smallest to highest score. All exemplary HPPD polypeptide variants are better in all percentile analyses than the prior art mutant HPPD polypeptide (WO2014/043435) corresponding to SEQ ID NO:2 in this invention. The scoring of the prior art mutant HPPD polypeptide (WO2014/043435) corresponding to SEQ ID NO:2 in this invention is listed in the bottom row of Table 9.", "data": [{"molecule": "B1", "values": [{"measurement": "leaf damage score, Interquartile range", "value": 10.0}, {"measurement": "leaf damage score, 25th percentile", "value": 10.0}, {"measurement": "leaf damage score, 75th percentile", "value": 20.0}, {"measurement": "leaf damage score, 90th percentile", "value": 65.0}, {"measurement": "leaf damage score, Median", "value": 15.0}]}, {"molecule": "B2", "values": [{"measurement": "leaf damage score, Interquartile range", "value": 5.0}, {"measurement": "leaf damage score, 25th percentile", "value": 10.0}, {"measurement": "leaf damage score, 75th percentile", "value": 15.0}, {"measurement": "leaf damage score, 90th percentile", "value": 19.0}, {"measurement": "leaf damage score, Median", "value": 10.0}]}, {"molecule": "B3", "values": [{"measurement": "leaf damage score, Interquartile range", "value": 15.0}, {"measurement": "leaf damage score, 25th percentile", "value": 10.0}, {"measurement": "leaf damage score, 75th percentile", "value": 25.0}, {"measurement": "leaf damage score, 90th percentile", "value": 35.0}, {"measurement": "leaf damage score, Median", "value": 15.0}]}, {"molecule": "B4", "values": [{"measurement": "leaf damage score, Interquartile range", "value": 10.0}, {"measurement": "leaf damage score, 25th percentile", "value": 10.0}, {"measurement": "leaf damage score, 75th percentile", "value": 20.0}, {"measurement": "leaf damage score, 90th percentile", "value": 67.0}, {"measurement": "leaf damage score, Median", "value": 15.0}]}, {"molecule": "B5", "values": [{"measurement": "leaf damage score, Interquartile range", "value": 10.0}, {"measurement": "leaf damage score, 25th percentile", "value": 10.0}, {"measurement": "leaf damage score, 75th percentile", "value": 20.0}, {"measurement": "leaf damage score, 90th percentile", "value": 75.0}, {"measurement": "leaf damage score, Median", "value": 15.0}]}, {"molecule": "B6", "values": [{"measurement": "leaf damage score, Interquartile range", "value": 10.0}, {"measurement": "leaf damage score, 25th percentile", "value": 10.0}, {"measurement": "leaf damage score, 75th percentile", "value": 20.0}, {"measurement": "leaf damage score, 90th percentile", "value": 72.0}, {"measurement": "leaf damage score, Median", "value": 15.0}]}, {"molecule": "B7", "values": [{"measurement": "leaf damage score, Interquartile range", "value": 11.3}, {"measurement": "leaf damage score, 25th percentile", "value": 10.0}, {"measurement": "leaf damage score, 75th percentile", "value": 21.3}, {"measurement": "leaf damage score, 90th percentile", "value": 70.0}, {"measurement": "leaf damage score, Median", "value": 15.0}]}, {"molecule": "B8", "values": [{"measurement": "leaf damage score, Interquartile range", "value": 21.3}, {"measurement": "leaf damage score, 25th percentile", "value": 5.0}, {"measurement": "leaf damage score, 75th percentile", "value": 26.3}, {"measurement": "leaf damage score, 90th percentile", "value": 67.5}, {"measurement": "leaf damage score, Median", "value": 15.0}]}, {"molecule": "B9", "values": [{"measurement": "leaf damage score, Interquartile range", "value": 10.0}, {"measurement": "leaf damage score, 25th percentile", "value": 10.0}, {"measurement": "leaf damage score, 75th percentile", "value": 20.0}, {"measurement": "leaf damage score, 90th percentile", "value": 70.0}, {"measurement": "leaf damage score, Median", "value": 15.0}]}]}
